US20260049134A1 (UNIVERSITY OF FLORIDA RESEARCH FOUNDATION, published 2026)

T1: SLAMF7
T1 construct: coated protein in the ELISA; also called SLAMF7-StrepTag
T1 chain: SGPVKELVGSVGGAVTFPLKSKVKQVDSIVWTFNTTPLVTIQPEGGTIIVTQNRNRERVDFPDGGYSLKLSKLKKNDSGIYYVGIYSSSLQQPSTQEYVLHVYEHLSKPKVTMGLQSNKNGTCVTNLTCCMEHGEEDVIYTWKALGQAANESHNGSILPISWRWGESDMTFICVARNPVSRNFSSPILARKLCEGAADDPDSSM

T2: DCC
T2 construct: coated protein in the ELISA; also called DCC-His (R&D Systems)
T2 chain: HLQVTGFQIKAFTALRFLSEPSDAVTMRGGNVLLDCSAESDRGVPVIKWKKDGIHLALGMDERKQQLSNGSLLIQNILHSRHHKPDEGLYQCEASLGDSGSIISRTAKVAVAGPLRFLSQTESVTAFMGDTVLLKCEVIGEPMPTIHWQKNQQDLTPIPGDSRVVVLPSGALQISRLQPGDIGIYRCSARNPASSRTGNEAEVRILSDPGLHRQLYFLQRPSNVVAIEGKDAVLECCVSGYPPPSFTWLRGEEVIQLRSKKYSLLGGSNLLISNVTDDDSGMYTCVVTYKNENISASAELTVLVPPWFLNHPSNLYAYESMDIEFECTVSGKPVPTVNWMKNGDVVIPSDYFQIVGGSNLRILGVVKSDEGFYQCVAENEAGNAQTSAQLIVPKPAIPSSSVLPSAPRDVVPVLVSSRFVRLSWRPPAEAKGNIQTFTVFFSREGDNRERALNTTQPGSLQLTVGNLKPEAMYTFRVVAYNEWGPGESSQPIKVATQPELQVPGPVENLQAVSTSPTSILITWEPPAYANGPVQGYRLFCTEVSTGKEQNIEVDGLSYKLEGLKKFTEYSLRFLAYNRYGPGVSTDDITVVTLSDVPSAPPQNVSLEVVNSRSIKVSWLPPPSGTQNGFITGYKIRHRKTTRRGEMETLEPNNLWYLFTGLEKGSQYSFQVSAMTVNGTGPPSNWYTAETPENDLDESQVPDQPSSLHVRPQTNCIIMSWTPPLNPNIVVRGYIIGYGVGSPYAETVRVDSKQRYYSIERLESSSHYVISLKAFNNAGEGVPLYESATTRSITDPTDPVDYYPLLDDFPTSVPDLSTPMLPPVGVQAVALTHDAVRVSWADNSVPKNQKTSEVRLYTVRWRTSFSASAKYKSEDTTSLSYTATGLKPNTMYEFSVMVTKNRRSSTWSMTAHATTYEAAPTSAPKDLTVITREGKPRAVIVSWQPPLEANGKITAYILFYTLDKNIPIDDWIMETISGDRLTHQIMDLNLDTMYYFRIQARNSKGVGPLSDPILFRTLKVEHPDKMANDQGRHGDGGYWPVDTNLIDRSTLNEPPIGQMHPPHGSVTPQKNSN

T3: PTPRG-Fc (ECD of human PTPRG, aa 20-736, fused to human Fc gamma 1) (human, UniProt P23470 20-736)
T3 construct: Made in-house in Expi293 cells; Used in ELISA and SPR; also called recombinant PTPRG-Fc; PTRPG; not shown: human IgG1 Fc (Fc gamma 1) after the hinge
T3 sequence: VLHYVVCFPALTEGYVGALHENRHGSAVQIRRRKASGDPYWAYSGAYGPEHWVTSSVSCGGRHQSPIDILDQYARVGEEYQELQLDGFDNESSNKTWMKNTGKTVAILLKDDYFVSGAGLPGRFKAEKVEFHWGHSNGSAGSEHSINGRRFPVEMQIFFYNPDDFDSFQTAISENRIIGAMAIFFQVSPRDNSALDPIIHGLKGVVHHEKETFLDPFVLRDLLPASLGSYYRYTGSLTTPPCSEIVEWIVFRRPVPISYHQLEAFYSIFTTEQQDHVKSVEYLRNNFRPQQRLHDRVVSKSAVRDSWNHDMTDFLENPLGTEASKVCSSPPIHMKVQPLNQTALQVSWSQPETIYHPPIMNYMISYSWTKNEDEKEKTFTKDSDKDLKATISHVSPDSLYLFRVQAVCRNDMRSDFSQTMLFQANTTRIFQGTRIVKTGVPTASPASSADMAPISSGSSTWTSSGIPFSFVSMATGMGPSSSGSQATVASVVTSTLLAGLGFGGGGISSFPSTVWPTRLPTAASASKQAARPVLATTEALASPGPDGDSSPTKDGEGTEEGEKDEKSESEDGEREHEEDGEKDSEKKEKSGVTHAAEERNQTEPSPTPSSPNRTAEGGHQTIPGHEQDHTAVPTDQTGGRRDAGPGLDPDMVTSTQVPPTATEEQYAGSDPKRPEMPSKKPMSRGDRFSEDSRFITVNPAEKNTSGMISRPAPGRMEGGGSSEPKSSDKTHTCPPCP


How the values were obtained:
PTP4A3 (PRL-3) [1] = molecular target: T4, PTP4A3 (PRL-3); assay: ELISA on coated His-PTP4A3, 150 ng IgG1; None 0.085
T4 construct: coated protein in the ELISA; also called His-PTP4A3 (R&D Systems)
T4 sequence (chain, as listed by the source limits assumed): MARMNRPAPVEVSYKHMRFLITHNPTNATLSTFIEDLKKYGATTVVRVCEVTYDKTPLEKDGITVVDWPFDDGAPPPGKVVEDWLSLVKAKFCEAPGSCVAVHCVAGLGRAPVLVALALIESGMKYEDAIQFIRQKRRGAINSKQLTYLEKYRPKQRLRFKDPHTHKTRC
Experimental: (§1) Recombinant purified ECDs (50-150 ng) of each putative target protein were coated, incubated with 150 ng of the indicated primary antibody, and binding was detected using a peroxidase-conjugated anti-human Fab secondary antibody. Heatmap represents averages of technical triplicates. (8B) Target validation via siRNA knockdown. H929 cells were transfected with siRNA pools targeting the putative antibody targets ICAM1, CADM1, and PTPRG. Cells were then subjected to cognate IgG binding analysis via flow cytometry. (NT, non-targeting siRNA).
(§2) ELISA ELISA was conducted as described previously. Briefly, 50-150 ng of antigen was coated overnight in half-area 96-well plates at 4° C., blocked with 3% BSA at 37° C. for 1 h, and 150 ng of chimeric rabbit/human IgG1 was added, incubating for 2 h at 37° C. […] After incubating at 37° C. for 15 min-1 h (depending on intensity of controls), data were acquired using a SpectraMax M5 plate reader (Molecular Devices).

PTP4A3 (PRL-3) [2] = molecular target: T4, PTP4A3 (PRL-3); assay: ELISA on coated His-PTP4A3
Experimental: as §1, §2

SLAMF7 = molecular target: T1, SLAMF7; assay: ELISA on coated SLAMF7-StrepTag, 150 ng IgG1; None 0.047
Experimental: as §1, §2

DCC = molecular target: T2, DCC; assay: ELISA on coated DCC-His
Experimental: as §1, §2

[3] = molecular target: T3, PTPRG-Fc (ECD of human PTPRG, aa …); assay: ELISA on coated PTPRG-Fc, 150 ng IgG1; None 0.117
Experimental: as §1, §2

Binder	ELISA Absorbance (405 nm-570 nm) (PTP4A3 (PRL-3) [1])	binding result (PTP4A3 (PRL-3) [2])	ELISA Absorbance (405 nm-570 nm) (SLAMF7)	binding result (DCC)	ELISA Absorbance (405 nm-570 nm) [3]
TH9-0022 (antibody, human IgG1, kappa, L234A L235A, V domains shown, also called TH9-022; negative control) VH: QSLEESGGRLVTPGTPLTLTCTVSGFSLSSYAMNWVRQAPGKGLEWIGIINSYGSTYYASWAKGRFTISKTSTTVDLKITSPTTEDTATYFCARVTYDSYGYGYAPYGMDLWGPGTLVTVSS VL: LVMTQTPSSTSNAVGGTVTIKCQASQSIGNVLAWYQQKPGQPPKLLIYAASTLASGVPSRVGGSRSGTEYTLTISGVQREDAATYYCLGSDSDSDIAFGGGTELEILR	0.092	no binding (tested: 150 ng IgG1 per well)	0.052	no binding (tested: 150 ng IgG1 per well)	0.106
HW-8 chimeric rabbit-human IgG1 LA/LA/PG (antibody, V domains shown, Fc-silenced (L234A/L235A/P329G) IgG1, kappa; Alexa Fluor 647-labeled in single-step flow cytometry; Cluster C-45) VH: QSLEESGGRLVTPGTPLTLTCTVSGFSLSSYAMSWVRQAPGKGLEWIGAISTGGSTTYASWAKGRFTISKTSSTTVDLKMTSLTTEDTATYFCVRHFRLWGPGTLVTISS VL: QVLTQTPSSVSAAVGGTVTIKCQASQSIGSALAWFQQKPGQRPKLLIYRASNLASGVPSRFKGSGSGTEFALTISGVQREDAATYYCLGGAAAVWAFGAGTNVEIKR	0.075	no binding (tested: 150 ng IgG1 per well)	0.049	no binding (tested: 150 ng IgG1 per well)	0.069
HW-42 chimeric rabbit-human IgG1 LA/LA/PG (antibody, V domains shown, Fc-silenced (L234A/L235A/P329G) IgG1, lambda; Alexa Fluor 647-labeled in single-step flow cytometry; Cluster C-1) VH: QSVKESEGGLFKPADTLTLTCTVSGFSLSSNEISWVRQAPGEGLEYIGIIDTGGRAYYAVWARSRSTITRNTNLNTVTLKMTSLTAADTATYFCARGGVDTEWYAFSSWGPGTLVTVPS VL: SFVLTQPASVQVNLGQTVSLTCTADTLSRRYASWYQQKPGQAPVLLIFRDTSRPSGVPDRFSGSSSGDTATLTISGAQAGDEADYYCATSDGSGSNYQYVFGGGTQLTVTG	0.096	no binding (tested: 150 ng IgG1 per well)	0.054	no binding (tested: 150 ng IgG1 per well)	0.341
HW-28 chimeric rabbit-human IgG1 LA/LA/PG (antibody, V domains shown, Fc-silenced (L234A/L235A/P329G) IgG1, lambda; Alexa Fluor 647-labeled in single-step flow cytometry; Cluster C-45) VH: QKQLVESGGRLVTPGTPLTLTCTASGFSLSSNAMSWVRQAPGEGLQWIGTISSGGSTYYASWAKGRFTISKTSTTVTLKMTSLTTEDTATYFCARGADLHRLWGPGTLVTVSS VL: SFVLTQPASVQVNLGQTVSLTCTGKPLSRSFASWYQQKPGQAPVLVIYRDTSRPSGVPDRFSGSSSGNTATLTISGAQAGDEADYYCATSDGSGSSYQYVFGGGTQLTVTG	–	–	–	–	0.121
HW-17 chimeric rabbit-human IgG1 LA/LA/PG (antibody, V domains shown, Fc-silenced (L234A/L235A/P329G) IgG1, lambda; Alexa Fluor 647-labeled in single-step flow cytometry; Cluster C-1) VH: QSLGESRGRLVTPDETLTLTCTVSGIDLSSNAMSWVRQAPGEGLEWIGTINTGGRAYYASWAKGRFTISRTSTTVDLKMTSLTTEDTATYFCARERYSDGRAYDIWGPGTLVTISS VL: SFVLTQPASVQVNLGQTVSLTCTADTLSRRYASWYQQKPGQAPVLLIYTDSNRPSGIPDRFSGSSSGNTATLTISGAQAGDEADYYCATDDGSGSIYQYVFGGGTQLTVTG	0.072	no binding (tested: 150 ng IgG1 per well)	0.053	no binding (tested: 150 ng IgG1 per well)	0.756
HW-25 chimeric rabbit-human IgG1 LA/LA/PG (antibody, V domains shown, Fc-silenced (L234A/L235A/P329G) IgG1, lambda; Alexa Fluor 647-labeled in single-step flow cytometry; Cluster C-1) VH: QSLEESGGRLVTPGTPLTLTCTVSGFSLSSYAMGWVRQAPGKGLEWIGIIDSRGSTYYATWAKGRFTISKTSTTVDLKITSPTTEDTATYFCAREDSYYYDSFNLWGPGTLVTVSS VL: SFVLTQPASVQVNLGQTVSLTCTADTLSRRYASWYQQKPGQAPVLLIYRDTSRPSGVPDRFSGSSSGNTATLTISGAQAGDEADYYCATSDGSGSSYQCVFGGGTQLTVTG	0.079	no binding (tested: 150 ng IgG1 per well)	0.054	no binding (tested: 150 ng IgG1 per well)	0.784
HW-1 chimeric rabbit-human IgG1 LA/LA/PG (antibody, V domains shown, Fc-silenced (L234A/L235A/P329G) IgG1, lambda; Alexa Fluor 647-labeled in single-step flow cytometry; Prototype of cluster C-1) VH: QSLEESGGGLFKPTDTLTLTCTASGFSLGSSYAISWVRQAPGKELEWIGTIDSGRAYYARWAKSRSTITRNTNENTVTLKMTSLTAADTATYFCARDLIPTYSQDIWGPGTLVTISS VL: SFVLTQPASVQVNLGQTVSLTCTADTLSRRYASWYQQKPGQAPVLLIYRDTSRPSGVPDRFSGSSSGNTATLTISGAQAGDEADYYCATSDGSGNSYQYVFGGGTQLTVTS	0.081	no binding (tested: 150 ng IgG1 per well)	0.053	no binding (tested: 150 ng IgG1 per well)	0.756
HW-70 chimeric rabbit-human IgG1 LA/LA/PG (antibody, V domains shown, Fc-silenced (L234A/L235A/P329G) IgG1, lambda; Alexa Fluor 647-labeled in single-step flow cytometry; Cluster C-1) VH: QSLEESGGRLVTPGTPLTLTCTVSGFSLSSNAMSWVRQAPGKGLEWIGTIDGYGYTYYASWAKGRFTVSKTSTTVDLKITSPTTEDTATYFCAREIYLGSNFWGPGTLVTISS VL: SFVLTQPASVQVNLGQTVSLTCTADTLSRRYASWYQQKPGQAPVLLIYRDTSRPSGVPDRFSGSSSGNTATLTISGAQAGDEADYYCATADGSGSSYQFVFGGGTQLTVTG	0.092	no binding (tested: 150 ng IgG1 per well)	0.047	no binding (tested: 150 ng IgG1 per well)	0.29
HW-16 chimeric rabbit-human IgG1 LA/LA/PG (antibody, V domains shown, Fc-silenced (L234A/L235A/P329G) IgG1, kappa; Alexa Fluor 647-labeled in single-step flow cytometry; Cluster C-45) VH: QSLEESGGRLVTPGTPLTLTCTASGFSLSSYAMSWVRQAPGKGLEWIGTMPTGGGTYYASWAKGRFTISKTSTTVDLQITSPTTEDTATYFCAKHWNIWGPGTLVTISS VL: DIVLTQTPSSTSTAVGDTVTINCRASQSIGRNLAWFQQKPGQPPKLLIYRASNLASGVPSRFKGSGSRTQFTLTISGVQREDAATYYCLGSYSSSDTAFGGGTELEILR	0.105	no binding (tested: 150 ng IgG1 per well)	–	–	–
